In patent US20110009597A1, “RECOMBINANT GANODERMA LUCIDIUM IMMUNOMODULATORY PROTEIN (rLZ-8) AND USES THEREOF” (priority 2008, published 2011):

Assays:
[1] = system: Human Chronic Myelogenous Leukemia K562 Cells; assay: Lethal effect of rLZ-8 on K562 cells (MTT, OD570nm); type: cell-based
Experimental: After sterilization of rLZ-8, we prepared 6 concentrations using IMDM culture medium, which are respectively 3.125 μg·ml^−1, 6.25 μb·ml^−1, 12.5 μg·ml^−, 25 μg·ml^−1, 50 μg·ml^−1, 100 μg·ml^−1.
On 96-orifice culture plate, the pilot aperture plus K562 tumor cells 0.1 ml and rLZ-8 0.1 ml, rLZ-8 concentrations from low to high; negative control group plus K562 tumor cells and culture medium of the 0.1 ml respectively; positive drug control group arsenic trioxide As2O3; make six-aperture multipunches for each group. Placing in 37° C., 5% CO2 incubator 48 h, adding MTT15 μl (5 mg ml^−1) prior to the termination of 4 h, after the termination of cell culture by adding 100 μl 0.1 mol L^−1 hydrochloric acid isopropyl alcohol, testing OD values570nm on the enzyme immunosorbent detector.

[2] = system: HL-60; assay: Annexin V-FITC flow cytometry, apoptosis of HL-60; type: cell-based; settings: Annexin V/PI
Experimental: FACS Calibur flow cytometry, U.S. Becton-Dickinson.Coompany. NB4, HL-60. rLZ-8 is prepared with IMDM culture medium containing 2% FCS into the preparation of 0.1 μg·ml^−1, 0.5 μg·ml^−1, 2.5 μg·ml^−1, arsenic trioxide (As2O3) 0.5 μg·ml^−1 AnnexinV-FITC kit: combining buffer solution 4×; Propidium iodide solution (PI), 20 μg·ml−1, 0.2 ml; recombinant human Annexin V/FITC, 0.1 ml.
Establish NB4 normal control group, positive drug group (As2O3 0.5 μg·ml^−1), protein low-dose group (0.1 μg·ml^−1), medium-dose group (0.5 μg·ml^−1), high-dose group, (2.5 μg·ml^−1); establish HL-60 normal control group, protein low-dose group (0.1 μg·ml^−1), medium-dose group (0.5 μg·ml^−1), high-dose group, (2.5 μg·ml^−1).
Mix NB4 and HL-60 cell into 24-orifice plate respectively, 1 ml/hole supply rLZ-8 in different concentrates, set 3-orifice multipunches for each group. Put them in 37° C., 5% CO2 incubator for 24 h, collect the cells of each concentrate, washes the cells twice with pre-cooled PBS 4° C., with 250 μl binding buffer solution re-suspending cells and regulates the cell density to 1×10^6/ml, taking out 100 μl to 5 ml streaming tube, and add 5 μl Annexin V/FITC and 10 μl 20 μg·ml^−1 PI solution, after mixing put it in room temperature and lucifuged hatching 15 min, add 400 μl PBS by flow cytometry analysis.

[3] = system: WBC; assay: Cyclophosphamide low-leucocyte mice model, WBC; type: in vivo; design: unit not given here
Experimental: rLZ-8 preparation of sterile saline. Divide them into 5 μg·kg^−1, 2.5 μg√kg^−1, 1.25 μg·kg^−1, 0.62 μg·kg^−1 dose groups.
Genlei™ Scimax™ [Recombinant human granulocyte colony-stimulating factor injection (rhG-CSF)], production lot: 20060403; 75 μg/vial is prepared with sterile normal saline into the preparation of 3.2 μg·kg^−1, 0.2 ml/vial.
Cyclophosphamide (CP) for injection (the production lot number 050216; 200 mg/vial) is prepared with sterile normal saline into the preparation of 12.5 mg·kg^−1, 0.2 ml/vial.
Normal control group, several protein dose groups, positive control group (Genlei™ Scimax™).
Excluding the normal control group (given same normal saline), each group of mice were given tail vein injection of cyclophosphamide, […], 0.2 ml/vial, for 3 consecutive days. On 3rd day, rat tail venous blood sampling, sent to Jilin University First Hospital laboratory, cell analyze the number of WBC. After successful modeling, they were given to the above groups respective dose of rLZ-8 and positive drugs (Genlei™ Scimax™) treatment, the normal control group and CP groups were given same normal saline, on the 3rd, 7th and 14th day of the treatment to draw venous blood from mice tail respectively, sent to Jilin University First Hospital testing the numbers of WBC. Compare WBC changes before and after the treatment for analysis of drug efficacy.

[4] = system: Mouse hepatoma cell strain H22; assay: H22 subcutaneous tumor inhibition experiment; type: in vivo, Mice; settings: 10 days
Experimental: Mice, weight 18-22g, males and females were divided equally, from Jilin University Laboratory Animal Center. Mouse hepatoma cell strain H22, offered by our laboratory. Cyclophosphamide (CTX), offered by Jiangsu Hengrui Medicine Co., Ltd., lot number: 06101921.
H22 hepatoma cells experiment group were divided into normal control group, negative control group, positive control group, rLZ-8 low-dose treatment group (0.25 mg·kg^−1), rLZ-8 medium-dose treatment group (0.5 mg·kg^−1), rLZ-8 high-dose treatment group (1 mg·kg^−1). For each group 10 mice.
H22 subcutaneous tumor tumor inhibition experiment methods: Select well-growing 1-122 cells, dilute appropriately with sterile saline into a tumor cell suspension, cell counts for 10^7·L^−1, under the right armpit of each mouse inoculated subcutaneously 0.2 ml (except for the normal control group). Treatment after 24 h of vaccination. Normal control group and negative control group were given saline 0.2 ml·each^−1·d^−1, intraperitoneal injection; positive control group were given cyclophosphamide 20 mg·kg^−1, 0.2 ml·each^−1·d^−1, intraperitoneal injection. rLZ-8 treatment groups were given doses of tail venous injection respectively, 0.2 ml·each^−1·d^−1, in 10 consecutive days. Draw blood from orbital venous plexus 10 days before and after medication respectively, sent to Jilin University No. 1 Hospital clinical laboratory to test and analyze the number of WBC. Kill all the mice the next day of drug withdrawal at cervical dislocation, dissected anatomically and took out the tumors, weigh tumors, calculated the inhibition rate using the following equation:
Inhibition rate (%)=(average tumore weight of the control group−average tumor weight of the experiment group)/average tumor weight of the control group×100%

[5] = rLZ-8 0.25 mg·kg^−1 tail venous injection
[6] = rLZ-8 0.5 mg·kg^−1 tail venous injection
[7] = rLZ-8 1 mg·kg^−1 tail venous injection

B1: rLZ-8: Recombinant Ganoderma Lucidum Immune Regulatory Protein expressed in Pichia pastoris (protein, UniProt P14945 2-111, looked up)
Immunomodulatory protein Ling …: SDTALIFRLAWDVKKLSFDYTPNWGRGNPNNFIDTVTFPKVLTDKAYTYRVAVSGRNLGVKPSYAVESDGSQKVNFLEYNSGYGIADTNTIQVFVVDPDTNNDFIIAQWN
- lethal effect in vitro on K562 tumor cells (in words) ([1]; 3.125-100 μg·ml^−1): strong lethal effect
- Growth inhibition rate (%) ([1]; rLZ-8 3.125 μg ml^−1, 48 h): 34.7%
- OD570 nm ([1]; rLZ-8 3.125 μg ml^−1, 48 h): 0.66 ± 0.03
- Growth inhibition rate (%) ([1]; rLZ-8 6.25 μg ml^−1, 48 h): 42.6%
- OD570 nm ([1]; rLZ-8 6.25 μg ml^−1, 48 h): 0.58 ± 0.03
- Growth inhibition rate (%) ([1]; rLZ-8 12.5 μg ml^−1, 48 h): 48.5%
- OD570 nm ([1]; rLZ-8 12.5 μg ml^−1, 48 h): 0.52 ± 0.05
- Growth inhibition rate (%) ([1]; rLZ-8 25 μg ml^−1, 48 h): 69.3%
- OD570 nm ([1]; rLZ-8 25 μg ml^−1, 48 h): 0.31 ± 0.02
- Growth inhibition rate (%) ([1]; rLZ-8 50 μg ml^−1, 48 h): 75.2%
- OD570 nm ([1]; rLZ-8 50 μg ml^−1, 48 h): 0.25 ± 0.04
- Growth inhibition rate (%) ([1]; rLZ-8 100 μg ml^−1, 48 h): 81.2%
- OD570 nm ([1]; rLZ-8 100 μg ml^−1, 48 h): 0.19 ± 0.03
- Apoptosis rate ([2]; HL-60, rLZ-8 0.1 μg·ml−1, 24 h): 30.5%
- Apoptosis rate ([2]; HL-60, rLZ-8 0.5 μg·ml−1, 24 h): 40.7%
- Apoptosis rate ([2]; HL-60, rLZ-8 2.5 μg·ml−1, 24 h): 47.7%
- WBC, 3rdday of medication ([3]; rLZ-8 0.62 μg·kg−1): 6.4 ± 0.41
- WBC, 7thday of medication ([3]; rLZ-8 0.62 μg·kg−1): 27.2 ± 0.10
- WBC, 14thday of medication ([3]; rLZ-8 0.62 μg·kg−1): 13.9 ± 0.17
- WBC, 3rdday of medication ([3]; rLZ-8 1.25 μg·kg−1): 8.1 ± 0.17
- WBC, 7thday of medication ([3]; rLZ-8 1.25 μg·kg−1): 19.7 ± 0.17
- WBC, 14thday of medication ([3]; rLZ-8 1.25 μg·kg−1): 13.9 ± 0.14
- WBC, 3rdday of medication ([3]; rLZ-8 2.5 μg·kg−1): 6.6 ± 0.77
- WBC, 7thday of medication ([3]; rLZ-8 2.5 μg·kg−1): 22.8 ± 0.15
- WBC, 14thday of medication ([3]; rLZ-8 2.5 μg·kg−1): 15.2 ± 0.11
- WBC, 3rdday of medication ([3]; rLZ-8 5 μg·kg−1): 5.0 ± 0.12
- WBC, 7thday of medication ([3]; rLZ-8 5 μg·kg−1): 20.3 ± 0.11
- WBC, 14thday of medication ([3]; rLZ-8 5 μg·kg−1): 14.3 ± 0.21
- Inhibition rate (%) [4, 5]: 16.7%
- Tumor weight [4, 5]: 1.00 ± 0.03 g
- Inhibition rate (%) [4, 6]: 30.0%
- Tumor weight [4, 6]: 0.84 ± 0.02 g
- Inhibition rate (%) [4, 7]: 42.5%
- Tumor weight [4, 7]: 0.69 ± 0.03 g
